Data on four molecules can be found in patent US20030166037.

In data set [1] the test system is T1, FasL1 FRET peptide (Aedans)EKELAELRESTS(Dabcyl)K-amide.
T1 sequence: KELAELRESTS

For data set [2], the target named is T2, 29CD23 FRET peptide (Aedans)…(Dabcyl)K-amide.
T2 chain: ADLSSFKSQEL

The target of data set [3] is T3, FasL1 FRET peptide (Aedans)…(Dabcyl)K-amide.
T3 chain: KELAELRESTS

In data set [4] the target is T4, Peptide D7 (Aedans)ERNITEGEARGSVIL(Dabcyl)K-amide (not fully specified).
T4 chain: ERNITEGEARGSVIL

For data set [5], the target named is T2, 29CD23 FRET peptide …. The experiment in a line: FRET peptide cleavage kinetics, non-linear fit of rate against substrate concentration (the filing calls it analysis of affinities).
Data set [6] concerns the target T3, FasL1 FRET peptide …. The description is as above.

Consider MMP 13 (Chemicon, Cat. #CC068), for which, in data set [1], the “FRET peptide cleavage in similar screening assays” value is “shown in similar screening assays to be a suitable substrate for the metalloproteases MMP7 and MMP 13”.
On the same count and under the same terms, under MMP7 (Chemicon, Cat. #CC1059) stands “shown in similar screening assays to be a suitable substrate for the metalloproteases MMP7 and MMP 13”.

B1: truncated recombinant human Aggrecanase-2 (pro- and protease domains with C-terminal FLAG epitope) (protein)
chain: SISRARQVELLLVADASMARLYGRGLQHYLLTLASIANRLYSHASIENHIRLAVVKVVVLGDKDKSLEVSKNAATTLKNFCKWQHQHNQLGDDHEEHYDAAILFTREDLCGHHSCDTLGMADVGTICSPERSCAVIEDDGLHAAFTVAHEIGHLLGLSHDDSKFCEETFGSTEDKRLMSSILTSIDASKPWSKCTSATITEFLDDGHGNCLLDLPRKQILGGDYKDDDDKG
In the case of B1, the “Relative proteolytic Activity” value in data set [2] and in data set [3] was “*****” each time. For the same molecule, the figures for the Vm in data set [2] and in data set [3] were 0.6 rfu/min and 2.8 rfu/min, respectively. Also, the “FRET peptide cleavage activity” value in data set [4] is recorded as “Neither Aggrecanase-1 nor Aggrecanase-2 showed any activity on this peptide”. The values for the Michaelis-Menten constant (Km) in data set [5] and in data set [6] were 40 µM and 80 µM, respectively.

B2: truncated recombinant human Aggrecanase-1 (pro- and protease domains with C-terminal FLAG epitope) (protein)
chain: FASLSRFVETLVVADDKMAAFHGAGLKRYLLTVMAAAAKAFKHPSIRNPVSLVVTRLVILGSGEEGPQVGPSAAQTLRSFCAWQRGLNTPEDSDPDHFDTAILFTRQDLCGVSTCDTLGMADVGTVCDPARSCAIVEDDGLQSAFTAAHELGHVFNMLHDNSKPCISLNGPLSTSRHVMAPVMAHVDPEEPWSPCSARFITDFLDNGYGHCLLDKPEAPLHLPVTGDYKDDDDKG
B2: the “Relative proteolytic Activity” value in data set [3] is listed as “*”. Moreover, the “FRET peptide cleavage activity” value in data set [4] was “Neither Aggrecanase-1 nor Aggrecanase-2 showed any activity on this peptide”.

In general, Km refers to the concentration of substrate that gives half-maximal velocity.
